1 molecule from patent US20100166734A1 (published 2010) can be followed below.

The target of assay [1] is T1, ectodomain of human pIgR (R&D Systems Cat #2717-PG) (human, UniProt P01833 19-638).
T1 construct: extracellular domain; Immobilised on Maxisorp plates at 5 ug/ml; also called pIgR ectodomain
The experiment in a line: competition ELISA, dilution series of purified Nanobody against 1 ug/ml IgA on immobilised pIgR ectodomain.

The target of assay [2] is T2, human pIgR overexpressed in MDCK cells (human, UniProt P01833 19-764).
T2 construct: whole, on cells; also called hpIgR; human polymeric immunoglobulin receptor
T2 sequence (P01833 19-764): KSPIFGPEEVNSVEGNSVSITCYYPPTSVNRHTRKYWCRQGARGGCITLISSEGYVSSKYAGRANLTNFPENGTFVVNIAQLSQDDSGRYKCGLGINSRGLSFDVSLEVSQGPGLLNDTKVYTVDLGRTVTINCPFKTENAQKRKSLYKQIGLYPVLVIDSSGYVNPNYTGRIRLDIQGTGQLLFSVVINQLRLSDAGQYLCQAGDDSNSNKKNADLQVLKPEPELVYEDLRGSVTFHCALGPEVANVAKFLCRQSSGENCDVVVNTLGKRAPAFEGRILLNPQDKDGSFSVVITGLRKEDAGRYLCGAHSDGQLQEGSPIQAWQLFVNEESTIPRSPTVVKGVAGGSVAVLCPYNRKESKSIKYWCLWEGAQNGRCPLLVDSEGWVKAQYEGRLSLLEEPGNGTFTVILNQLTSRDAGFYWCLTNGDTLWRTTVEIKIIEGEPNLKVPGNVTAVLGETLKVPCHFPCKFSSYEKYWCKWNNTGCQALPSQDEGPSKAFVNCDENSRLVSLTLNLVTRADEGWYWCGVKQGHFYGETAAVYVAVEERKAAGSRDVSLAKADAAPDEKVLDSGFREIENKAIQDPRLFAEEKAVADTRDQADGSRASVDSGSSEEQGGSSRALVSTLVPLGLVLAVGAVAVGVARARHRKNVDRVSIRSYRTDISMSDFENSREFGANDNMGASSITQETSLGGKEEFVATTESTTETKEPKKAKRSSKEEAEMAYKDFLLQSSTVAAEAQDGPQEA
The experiment in a line: immunoprecipitation from cell lysates with His-tagged nanobodies on talon beads, blot with a-hSC.

T1 sequence (P01833 19-638): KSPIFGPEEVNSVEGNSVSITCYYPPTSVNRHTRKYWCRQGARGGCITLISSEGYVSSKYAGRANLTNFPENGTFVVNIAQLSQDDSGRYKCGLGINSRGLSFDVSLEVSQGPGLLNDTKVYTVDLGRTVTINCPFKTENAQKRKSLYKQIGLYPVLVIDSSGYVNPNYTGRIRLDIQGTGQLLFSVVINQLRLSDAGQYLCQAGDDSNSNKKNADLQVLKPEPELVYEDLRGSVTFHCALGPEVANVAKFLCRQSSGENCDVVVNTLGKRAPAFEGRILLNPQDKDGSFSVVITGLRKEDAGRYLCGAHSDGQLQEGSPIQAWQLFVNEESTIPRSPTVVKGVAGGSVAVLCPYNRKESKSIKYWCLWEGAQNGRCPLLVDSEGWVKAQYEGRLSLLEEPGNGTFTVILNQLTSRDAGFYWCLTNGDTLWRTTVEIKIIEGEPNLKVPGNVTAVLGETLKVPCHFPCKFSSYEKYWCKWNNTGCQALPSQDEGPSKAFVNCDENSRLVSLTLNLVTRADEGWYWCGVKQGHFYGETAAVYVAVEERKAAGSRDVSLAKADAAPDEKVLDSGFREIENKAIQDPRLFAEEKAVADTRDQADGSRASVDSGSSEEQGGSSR

B1: 1D7 (VHH)
VHH: EVQLVESGGGLVQSGGSLRLSCAASGRAFNYYAMGWFRQAPGKERELVAVINWSGGTTSYADSVKGRFTISRSNAKNTVYLQMSSLKPEDTAVYYCAADSIYRTSKDYNYWGQGTQVTVSS
notes: Carries myc and His tags (detected with anti-myc, pulled down on talon beads)
B1: the binding result in assay [1] and in assay [2] was “binds” in each case.
